From article PMC5706988

Biological target: zonula occludens-1 (ZO-1) (UniProt Q07157)
Assay: anti-ZO-1 co-IP, Cx43 blot
Details: reference: wild type; sites S373

binding against the reference: stronger
Substance: connexin43 (Cx43) (from UniProt P08050) S373A
